Experimental data taken from patent publication US20210223235A1.

Target: QTARK^MeSTGC (SEQ ID NO: 4), methylated H3K9 peptide ligand immobilized on the monolayer
Experiment: cell-based or functional assay

“Cbx1 fusion protein (Cbx1 chromodomain fused to KDAC8 through a short linker) (from UniProt P83916 20-73; Q9BY41 1-377)” was tested, and the rate acceleration for the deacetylation reaction (SAMDI mass spectrometry) was 20 fold.
